Read-outs that look alike come from different tables or passages of the source.
Tests used:
[1] = tested on: GATA 15.5 ZFP (NLS-ZFP-VP16-FLAG) (synthetic construct (SP1 backbone)); assay: cell_activity; details: 293 cells
[2] = tested on: VEGF 3a/1 ZFP (NLS-ZFP-VP16-FLAG) (synthetic construct (SP1 backbone)); assay: cell_activity; details: 293 cells
[3] = tested on: GATA 15.5 ZFP (NLS-ZFP-VP16-FLAG) (synthetic construct (SP1 backbone)); details: ChIP anti-FLAG, 293 cells, GAPDH-normalized; 1.9 in Table 7; control ZFP
[4] = tested on: VEGF 3a/1 ZFP (NLS-ZFP-VP16-FLAG) (synthetic construct (SP1 backbone)); details: ChIP anti-FLAG, 293 cells, GAPDH-normalized; 170.4 in Table 7
[5] = tested on: GATA 15.5 ZFP (NLS-ZFP-VP16-FLAG) (synthetic construct (SP1 backbone)); details: ChIP anti-FLAG, 293 cells, GAPDH-normalized; designed for a different site
[6] = tested on: VEGF 3a/1 ZFP (NLS-ZFP-VP16-FLAG) (synthetic construct (SP1 backbone)); details: ChIP anti-FLAG, 293 cells, GAPDH-normalized

GGGGAGGATCGCGGAGGCTT (double strand) gave an activity (fold luciferase vs NVF) ([1]; integrated reporter, 1 in Table 8) of 0.8, an activity (fold luciferase vs NVF) ([2]; integrated reporter, 10 in Table 8) of 18 and a binding signal (fold enrichment vs NVF) [3] of 0.88. It also gave a binding signal (fold enrichment vs NVF) [4] of 74.1.

In the case of “endogenous VEGF-A gene (GATA 15.5 bound site not mapped)”, the binding signal (fold enrichment vs NVF) [5] is reported as 4.1 and the activity (fold VEGF mRNA vs NVF) ([1]; VEGF protein 1.2, mRNA 2.0 and protein 2.0 in Table 9) is reported as 2.

“GGGGAGGATCGCGGAGGCTT (double strand) [endogenous VEGF-A gene target at +1 accessible region]” gave a binding signal (fold enrichment vs NVF) [6] of 12.1 and an activity (fold VEGF mRNA vs NVF) ([2]; VEGF protein 1.2, mRNA 1.0 and protein 1.5 in Table 9) of 1.6.

Reference: patent US20020064802
